± gives the uncertainty stated by the source.
Test: self-splicing fitness, log relative to wild type (ln ratio); higher = more splicing; Tetrahymena group I intron in knt gene, E. coli kanamycin selection, DiMSum; sequences stand for … in CUCUCU…GGAGGGAAAAGUUAUCAGGCAUGCACCUGGUAGCUAGUCUUUAAACCAAUAGAUUGCAUCGGUUUAAAAGGCAAGACCGUCAAAUUGCGGGAAAGGGGUCAACAGCCGUUCAGUACCAAGUCUCAGGGGAAACUUUGAGAUGGCCUUGCAAAGGGUAUGGUAAUAAGCUGACGGACAUGGUCCUAACCACGCAGCCAAGUCCUAAGUCAACAGAUCUUCUGUUGAUAUGGAUGCAGUUCACAGACUAAAUGUCGGUCGGGGAAGAUGUAUUCUUCUCAUAAGAUAUAGUCGGACCUCUCCUUAAUGGGAGCUAGCGGAUGAAGUGAUGCAACACUGGAGCCGCUGGGAACUAAUUUGUAUGCGAAAGUAUAUUGAUUAGUUUUGGAGUACUCGUGGUCG
Method in brief: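 A randomised library covering all eight P1ex-region intron nucleotides was built with the intron in the knt kanamycin-resistance gene on pET-22b(+) and held in E. coli BL21(DE3). Cells were grown overnight at 37°C or 30°C on LB agar, with or without 25 μg/mL kanamycin, plus 100 μg/mL carbenicillin, 50 μM IPTG and 0.2% rhamnose, and pooled colonies were amplicon-sequenced on an Illumina HiSeq 2500. DiMSum fitness is the error-weighted combination of wild-type-normalised replicate fold changes, kanamycin versus none.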

Row | Sequence | self-splicing fitness (ln) (30 °C) | self-splicing fitness (ln) (37 °C)
1 | UGCUAGCAAUAUUACGGCAU | -3.65 ± 0.28 | -2.37 ± 0.31
2 | AACUAGCAAUAUUACGAUUU | -0.0161 ± 0.059 | -0.157 ± 0.075
3 | GCAGAGCAAUAUUACGCCGU | -1.7 ± 0.15 | -2.65 ± 0.41
4 | UAGAAGCAAUAUUACGCUAA | -1.42 ± 0.12 | -0.983 ± 0.1
5 | ACACAGCAAUAUUACGCCCG | -0.876 ± 0.092 | -0.533 ± 0.12
6 | UGCGAGCAAUAUUACGCGUC | -2.18 ± 0.26 | –
7 | ACACAGCAAUAUUACGCGGC | -2.29 ± 0.12 | -2.92 ± 0.16
8 | UGCAAGCAAUAUUACGCGAU | -3.34 ± 0.17 | -2.15 ± 0.2
9 | UGAAAGCAAUAUUACGGAGU | -3.82 ± 0.28 | -2.84 ± 0.19
10 | CUGAAGCAAUAUUACGUAGA | -4.28 ± 0.34 | -1.75 ± 0.27
11 | ACAAAGCAAUAUUACGACUA | -0.772 ± 0.082 | -0.796 ± 0.084
12 | AGGCAGCAAUAUUACGUCCC | – | 0.266 ± 0.3
13 | CGGUAGCAAUAUUACGUCUG | -0.631 ± 0.086 | -0.338 ± 0.11
14 | UUCUAGCAAUAUUACGGAGA | -2.45 ± 0.29 | -2.41 ± 0.49
15 | GUAAAGCAAUAUUACGCCUG | -0.223 ± 0.15 | 0.555 ± 0.17
16 | CUACAGCAAUAUUACGGCAU | -3.6 ± 0.23 | -2.34 ± 0.23
17 | GUACAGCAAUAUUACGUUGA | -2.77 ± 0.12 | -1.59 ± 0.095
18 | GUCAAGCAAUAUUACGAUCG | -3.39 ± 0.19 | -2.88 ± 0.23
19 | CCUGAGCAAUAUUACGUGAU | -3.68 ± 0.24 | -3.54 ± 0.33
20 | CCCCAGCAAUAUUACGCCGC | -2.93 ± 0.31 | -2.26 ± 0.42
21 | UAGCAGCAAUAUUACGUGAG | -0.937 ± 0.035 | -0.228 ± 0.056
22 | GAACAGCAAUAUUACGGUCG | -1.17 ± 0.069 | -0.372 ± 0.098
23 | GCUAAGCAAUAUUACGUCGU | -1.39 ± 0.072 | -1.3 ± 0.095
24 | GGCCAGCAAUAUUACGCUAG | -3.21 ± 0.21 | -2.47 ± 0.3
25 | CUAAAGCAAUAUUACGCGUC | -3.94 ± 0.31 | -2.17 ± 0.25
26 | UAAUAGCAAUAUUACGACCG | -0.0649 ± 0.15 | 0.638 ± 0.17

Row | Sequence | self-splicing fitness (ln) (30 °C) | self-splicing fitness (ln) (37 °C)
27 | GGUGAGCAAUAUUACGACGU | -0.578 ± 0.13 | -0.013 ± 0.15
28 | UAAUAGCAAUAUUACGUCAC | -3.93 ± 0.26 | 0.0385 ± 0.19
29 | UAACAGCAAUAUUACGAACC | -2.12 ± 0.17 | -1.73 ± 0.24
30 | GCAGAGCAAUAUUACGCGUU | -1.48 ± 0.11 | -2.09 ± 0.16
31 | UUGCAGCAAUAUUACGGGUG | -1.7 ± 0.081 | -1.59 ± 0.13
32 | AAGGAGCAAUAUUACGUUUG | -3.57 ± 0.42 | -2.82 ± 0.23
33 | GCUCAGCAAUAUUACGAAAA | -0.758 ± 0.13 | -1.02 ± 0.18
34 | AUUAAGCAAUAUUACGAACA | -1.43 ± 0.14 | -0.718 ± 0.17
35 | GCACAGCAAUAUUACGAAAU | -1.63 ± 0.099 | -0.818 ± 0.11
36 | AUAUAGCAAUAUUACGGAGU | -2.29 ± 0.13 | -1.82 ± 0.2
37 | CCAGAGCAAUAUUACGCUGU | -3.95 ± 0.44 | –
38 | UAAAAGCAAUAUUACGUCCC | -2.74 ± 0.32 | -0.909 ± 0.24
39 | CCUAAGCAAUAUUACGUGCU | -3 ± 0.24 | -2.55 ± 0.36
40 | CAGCAGCAAUAUUACGGAAG | -0.307 ± 0.054 | -0.29 ± 0.068
41 | GCGCAGCAAUAUUACGAGUA | -2.36 ± 0.11 | -0.845 ± 0.096
42 | CUGAAGCAAUAUUACGUAUG | -0.151 ± 0.056 | -0.154 ± 0.068
43 | CCAAAGCAAUAUUACGCCCU | -3.49 ± 0.42 | -3.01 ± 0.27
44 | AAUUAGCAAUAUUACGUCGU | -0.641 ± 0.1 | -0.862 ± 0.12
45 | UAGAAGCAAUAUUACGCACG | -0.11 ± 0.23 | -0.0394 ± 0.23
46 | CUAGAGCAAUAUUACGAGGA | -2.99 ± 0.2 | -2.53 ± 0.28
47 | UGCCAGCAAUAUUACGACCA | 0.429 ± 0.1 | 0.0668 ± 0.13
48 | GAGCAGCAAUAUUACGCAUU | -3.04 ± 0.2 | -2.23 ± 0.24
49 | GCAGAGCAAUAUUACGGAAC | – | -0.993 ± 0.17
50 | CUUGAGCAAUAUUACGGAUC | – | -1.45 ± 0.31
51 | CUUAAGCAAUAUUACGUUUU | -4.2 ± 0.25 | -2.07 ± 0.21
52 | AACUAGCAAUAUUACGCAGA | -3.43 ± 0.37 | -0.413 ± 0.15

Row | Sequence | self-splicing fitness (ln) (30 °C) | self-splicing fitness (ln) (37 °C)
53 | AGUCAGCAAUAUUACGCUUU | -0.879 ± 0.063 | 0.0148 ± 0.087
54 | UUGCAGCAAUAUUACGAUUG | -1.62 ± 0.32 | -0.337 ± 0.21
55 | UUUAAGCAAUAUUACGGUGU | -3.85 ± 0.28 | -2.3 ± 0.35
56 | AGUAAGCAAUAUUACGAUGG | -3.99 ± 0.23 | -1.56 ± 0.26
57 | GACGAGCAAUAUUACGCGGU | -4.23 ± 0.31 | -1.83 ± 0.2
58 | AAAAAGCAAUAUUACGAGAU | -2.85 ± 0.13 | -1.86 ± 0.2
59 | AUCUAGCAAUAUUACGGCCC | 0.132 ± 0.2 | -0.0846 ± 0.33
60 | CUACAGCAAUAUUACGAUUU | -4.36 ± 0.22 | -1.95 ± 0.14
61 | UUGAAGCAAUAUUACGGUGG | -0.88 ± 0.059 | -0.498 ± 0.11
62 | CCUGAGCAAUAUUACGCAGG | -2.64 ± 0.27 | -3.36 ± 0.42
63 | UUUCAGCAAUAUUACGUAAU | -2.89 ± 0.14 | -1.58 ± 0.16
64 | ACCAAGCAAUAUUACGGACG | -1.09 ± 0.069 | -0.0232 ± 0.083
65 | GCUUAGCAAUAUUACGCAAU | -0.651 ± 0.14 | -1.35 ± 0.13
66 | AGACAGCAAUAUUACGCAUG | -2.45 ± 0.13 | -1.23 ± 0.11
67 | UUGCAGCAAUAUUACGUGCC | -2.11 ± 0.14 | -1.18 ± 0.15
68 | UGUAAGCAAUAUUACGUCUG | -0.606 ± 0.07 | 0.32 ± 0.093
69 | GCGCAGCAAUAUUACGACCA | -1.56 ± 0.25 | -0.19 ± 0.23
70 | AGUUAGCAAUAUUACGCGAA | -2.29 ± 0.15 | -1.1 ± 0.13
71 | AAGUAGCAAUAUUACGUUUA | -1.63 ± 0.13 | -0.835 ± 0.11
72 | AUAGAGCAAUAUUACGUUCC | -2.27 ± 0.22 | -1.53 ± 0.23
73 | UGCUAGCAAUAUUACGGGCG | -1.45 ± 0.1 | -1.82 ± 0.11
74 | UAGGAGCAAUAUUACGGUUG | -3.11 ± 0.36 | -2.4 ± 0.24
75 | CUCUAGCAAUAUUACGGACA | -2.52 ± 0.47 | -2.66 ± 0.4
76 | UGCUAGCAAUAUUACGGAUA | -1.44 ± 0.11 | -1.1 ± 0.13
77 | GCGAAGCAAUAUUACGGAGG | -2.1 ± 0.18 | -0.467 ± 0.12
